Assay results published in PMC10868436.

Biological target: consensus sphingomyelinase
Test: BLI; ForteBio Octet RED96, […]; 1:1 binding model, […]; triplicate

B1: TPL0674_03_F05 (scFv, V domains shown)
VH: EVQLVQSGAEVKKPGASVRVSCKASGYSITNYGISWVRQAPGQGLEWMGWINTYNGNTNYAQKFQGRVTMTRDTSISTAYMELSRLRSDDTAVYYCARDHPYRGMDVWGQGTLVTVSS
VL: SYELTQDPAVSVALGQTVRITCQGDSLRSYYASWYQQKPGQAPVLVIYGKNNRPSGIPDRFSGSSSGNTASLTITGAQAEDEADYYCNSRDSSGNHPHVVFGGGTKLTVL
Kd: 60.2 nM

B2: TPL0674_03_A04 (scFv, V domains shown)
VH: QVQLVQSGSELKKPGASVKVSCKASGYTFTSYAMNWVRQAPGQGLEWMGWINTNTGNPTYAQGFTGRFVFSLDTSVSTAYLQISSLKAEDTAVYYCARDQGGDRHFGYWGQGTTVTVSS
VL: QSELTQPPSASGTPGQRVTISCSGSSSNIGSHRVNWYQQLPGTAPKLLIYSNYHRPAGVPDRFSASKSGTSASLAISGLQSEDEADYYCAAWDDSLNGYVFGTGTQLTVL
Kd: 31.5 nM
